Measured values published in article PMC7808410 (Nature methods, 2021).

Target: the molecule itself
Test: cryo-EM structure

Protein	stoichiometry N
E. coli glutamate decarboxylase GadB (enzyme) MDKKQVTDLRSELLDSRFGAKSISTIAESKRFPLHEMRDDVAFQIINDELYLDGNARQNLATFCQTWDDENVHKLMDLSINKNWIDKEEYPQSAAIDLRCVNMVADLWHAPAPKNGQAVGTNTIGSSEACMLGGMAMKWRWRKRMEAAGKPTDKPNLVCGPVQICWHKFARYWDVELREIPMRPGQLFMDPKRMIEACDENTIGVVPTFGVTYTGNYEFPQPLHDALDKFQADTGIDIDMHIDAASGGFLAPFVAPDIVWDFRLPRVKSISASGHKFGLAPLGCGWVIWRDEEALPQELVFNVDYLGGQIGTFAINFSRPAGQVIAQYYEFLRLGREGYTKVQNASYQVAAYLADEIAKLGPYEFICTGRPDEGIPAVCFKLKDGEDPGYTLYDLSERLRLRGWQVPAFTLGGEATDIVVMRIMCRRGFEMDFAELLLEDYKASLKYLSDHPKLQGIAQQNSFKHT	6
E. coli OmpF porin channel (natural protein) AEIYNKDGNKVDLYGKAVGLHYFSKGNGENSYGGNGDMTYARLGFKGETQINSDLTGYGQWEYNFQGNNSEGADAQTGNKTRLAFAGLKYADVGSFDYGRNYGVVYDALGYTDMLPEFGGDTAYSDDFFVGRVGGVATYRNSNFFGLVDGLNFAVQYLGKNERDTARRSNGDGVGGSISYEYEGFGIVGAYGAADRTNLQEAQPLGNGKKAEQWATGLKYDANNIYLAANYGETRNATPITNKFTNTSGFANKTQDVLLVAQYQFDFGLRPSIAYTKSKAKDVEGIGDVDLVNYFEVGATYYFNKNMSTYVDYIINQIDSDNKLGVGSDDTVAVGIVYQF	3
E. coli OmpC outer membrane osmoporin channel (natural protein) AEVYNKDGNKLDLYGKVDGLHYFSDNKDVDGDQTYMRLGFKGETQVTDQLTGYGQWEYQIQGNSAENENNSWTRVAFAGLKFQDVGSFDYGRNYGVVYDVTSWTDVLPEFGGDTYGSDNFMQQRGNGFATYRNTDFFGLVDGLNFAVQYQGKNGNPSGEGFTSGVTNNGRDALRQNGDGVGGSITYDYEGFGIGGAISSSKRTDAQNTAAYIGNGDRAETYTGGLKYDANNIYLAAQYTQTYNATRVGSLGWANKAQNFEAVAQYQFDFGLRPSLAYLQSKGKNLGRGYDDEDILKYVDVGATYYFNKNMSTYVDYKINLLDDNQFTRDAGINTDNIVALGLVYQF	3
